Measured values as given in patent publication US10703792B2, “Insulin analogues with selective signaling properties and reduced mitogenicity” (Case Western Reserve University, priority 2015, dated 2020).

Experiments:
IR = IR (Homo sapiens, UniProt P06213); settings: known in the art; cited from earlier work
Sprague-Dawley rats = settings: one year of treatment; cited from earlier work
[1] = system: human breast-cancer cell line MCF-7; assay: MCF-7 colony formation in soft agar (mitogenicity); assay type: cell-based; settings: 100 nM protein, 3 weeks, relative to basal; preliminary assays
Procedure: Assay for MCF-7 Colony Formation in Soft Agar.
In our preliminary assays MCF-7 cells (1.5×10^3 cells in 0.75 ml, obtained from ATCC cat #HTB-22), were mixed with an equal volume Bacto-agar at 42° C. This 0.3% agar suspension was poured over a 1.5-ml base of 0.6% agar in 12-well plates and overlaid with basal growth medium with (or without) insulin or insulin analogues at a protein concentration of 100 nM, which was replenished 3× per week. Plates were incubated at 37° C. in a CO2 tissue-culture incubator for 3 weeks, at which time colonies were stained with crystal violet and counted under an inverted microscope. A positive control was provided by IGF-I (not shown) and a negative control by medium lacking insulin or an insulin analogue (“basal” in FIG. 6).

[2] = system: male Lewis rats rendered diabetic by streptozotocin; settings: statement on a current insulin product, not tested here; cited from earlier work

Asp^B10-insulin: insulin analogue with His^B10 substituted by Asp, known in the art
Enhancement of affinity for the IR relative to insulin (IR): twofold | Mammary tumors on chronic treatment (Sprague-Dawley rats): excess mammary tumors

human proinsulin: wild-type human proinsulin (SEQ ID NO: 1)
Mitogenicity: MCF-7 colony formation in soft agar [1]: negligible activities

insulin detemir
Nanomoles needed for equivalent therapeutic effects [2]: threefold
